The values below come from PMC12638876 (Nature Communications, 2025).

Where a chain is given by its changes, count along the chain named. Names and notes keep the numbering of the source.

The series “split reporter” deals with the molecule itself. The experiment in a line: split reporter.
The series “crystal structure” concerns the molecule itself. The experiment in a line: crystal structure.

B1: CXE15 C14D fused to split YFP (enzyme, Arabidopsis thaliana, UniProt Q9FG13 1-329, looked up)
chain: MGSLGEEPQVAEDDMGLLQLLSNGTVLRSESIDLITQQIPFKNNQTVLFKDSIYHKPNNLHLRLYKPISASNRTALPVVVFFHGGGFCFGSRSWPHFHNFCLTLASSLNALVVSPDYRLAPEHRLPAAFEDAEAVLTWLWDQAVSDGVNHWFEDGTDVDFDRVFVVGDSSGGNIAHQLAVRFGSGSIELTPVRVRGYVLMGPFFGGEERTNSENGPSEALLSLDLLDKFWRLSLPNGATRDHHMANPFGPTSPTLESISLEPMLVIVGGSELLRDRAKEYAYKLKKMGGKRVDYIEFENKEHGFYSNYPSSEAAEQVLRIIGDFMNNLS
Turning to B1, the “fold reduction of BiFC fluorescence against wild-type CXE15” value in the series “split reporter” is above 2 fold.

B2: CXE15 E271Q mutant (enzyme, Arabidopsis thaliana, UniProt Q9FG13 1-329, looked up)
chain: B1 chain with D14C, E271Q
modifications: disulphide bond between the two Cys14 residues in the crystal
As to B2, the binding result in “crystal structure” is “binds”.
